As a reminder, the stoichiometry N is the number of molecules, sites or subunits per partner or assembly. As usually defined, the Kd is the equilibrium constant for the complex coming apart. A low value points to a tighter complex.

The values that follow come from publication doi:10.1101/2024.09.02.610768 (bioRxiv, 2024).

Data set [1] deals with T1, FrzCD (Myxococcus xanthus, UniProt P43500 1-417).
T1 sequence: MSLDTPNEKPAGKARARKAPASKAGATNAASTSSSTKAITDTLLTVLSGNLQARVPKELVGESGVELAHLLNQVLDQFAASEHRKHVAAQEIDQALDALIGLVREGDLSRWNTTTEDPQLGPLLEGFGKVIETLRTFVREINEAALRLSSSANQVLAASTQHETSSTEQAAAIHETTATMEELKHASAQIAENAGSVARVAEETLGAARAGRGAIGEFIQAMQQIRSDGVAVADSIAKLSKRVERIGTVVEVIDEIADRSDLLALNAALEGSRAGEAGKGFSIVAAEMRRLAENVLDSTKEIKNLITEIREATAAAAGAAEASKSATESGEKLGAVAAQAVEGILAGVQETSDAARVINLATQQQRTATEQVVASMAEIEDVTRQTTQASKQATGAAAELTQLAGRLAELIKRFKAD
Put plainly: EMSA.

The data set “SEC-MALS” concerns the molecule itself. Put plainly: SEC-MALS. For orientation: Size exclusion chromatography separates by hydrodynamic size, large species first.
The target of data set [2] is T2, FrzCDΔH1ΔH2 (Myxococcus xanthus, UniProt P43500 1-417, del31-137).
T2 sequence: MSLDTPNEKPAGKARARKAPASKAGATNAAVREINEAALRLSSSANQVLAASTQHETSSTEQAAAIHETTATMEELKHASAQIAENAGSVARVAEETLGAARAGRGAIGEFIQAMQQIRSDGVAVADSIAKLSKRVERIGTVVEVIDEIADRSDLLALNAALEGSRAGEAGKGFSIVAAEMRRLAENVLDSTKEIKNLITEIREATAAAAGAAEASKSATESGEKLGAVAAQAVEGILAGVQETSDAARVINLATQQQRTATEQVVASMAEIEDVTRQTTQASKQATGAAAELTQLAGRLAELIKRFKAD
Put plainly: BLI. (In general: Biolayer interferometry detects binding as a change in optical thickness at a sensor tip.)

For data set [3], the target named is T1, FrzCD. Put plainly: BLI.
Data set [4] has as its target T3, FrzCDΔH2 (DB-H1-MA) (Myxococcus xanthus, UniProt P43500 1-417, del84-137).
T3 sequence: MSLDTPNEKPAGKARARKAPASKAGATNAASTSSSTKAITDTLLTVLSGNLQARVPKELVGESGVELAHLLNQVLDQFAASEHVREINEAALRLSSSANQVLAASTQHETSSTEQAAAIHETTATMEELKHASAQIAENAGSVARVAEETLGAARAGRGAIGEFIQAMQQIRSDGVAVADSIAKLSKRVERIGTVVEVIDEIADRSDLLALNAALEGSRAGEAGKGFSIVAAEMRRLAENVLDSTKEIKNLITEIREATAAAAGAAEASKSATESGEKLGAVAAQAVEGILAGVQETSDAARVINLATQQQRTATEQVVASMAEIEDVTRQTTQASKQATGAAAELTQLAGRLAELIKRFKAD
As to the kind of experiment: BLI.

Data set [5] concerns the target T4, FrzCDΔH1 (Myxococcus xanthus, UniProt P43500 1-417, del31-83).
T4 sequence: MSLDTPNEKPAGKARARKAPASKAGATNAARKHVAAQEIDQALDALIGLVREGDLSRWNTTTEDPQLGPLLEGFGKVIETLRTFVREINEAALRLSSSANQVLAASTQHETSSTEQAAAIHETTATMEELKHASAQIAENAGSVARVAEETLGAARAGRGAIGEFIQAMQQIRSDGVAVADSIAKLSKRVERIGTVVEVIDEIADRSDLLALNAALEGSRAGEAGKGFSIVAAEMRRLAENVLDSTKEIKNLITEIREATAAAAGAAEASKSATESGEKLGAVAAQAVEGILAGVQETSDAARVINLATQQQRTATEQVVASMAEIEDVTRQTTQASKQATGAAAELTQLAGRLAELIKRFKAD
As to the kind of experiment: BLI.

Data set [6] has as its target T5, FrzCDΔMA (DB-H1-H2) (Myxococcus xanthus, UniProt P43500 1-137, del138-417).
T5 sequence: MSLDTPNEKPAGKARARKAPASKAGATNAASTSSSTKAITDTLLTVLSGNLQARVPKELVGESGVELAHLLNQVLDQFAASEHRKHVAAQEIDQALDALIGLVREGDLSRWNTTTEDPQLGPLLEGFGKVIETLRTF
As to the kind of experiment: EMSA.

Data set [7] concerns the target T5, FrzCDΔMA (DB-H1-H2). As to the kind of experiment: EMSA. The source holds these as a separate data set.
For data set [8], the target named is T5, FrzCDΔMA (DB-H1-H2). As to the kind of experiment: SEC-MALS.
The target of data set [9] is T3, FrzCDΔH2 (DB-H1-MA). Put plainly: EMSA.
The target in data set [10] is T4, FrzCDΔH1. As to the kind of experiment: EMSA. For orientation: Mobility shift assays separate free from complexed probe on a gel.
Data set [11] has as its target T2, FrzCDΔH1ΔH2. Put plainly: EMSA.
Data set [12] concerns the target T1, FrzCD. As to the kind of experiment: SEC-MALS.

Regarding AAAAAAAA (ssDNA) [8-base poly-A ssDNA], the binding result with FrzCD [1] is recorded as “binds”.

B1: FrzCD full-length (His6-tagged) (receptor, Myxococcus xanthus, UniProt P43500 1-417, looked up)
chain: T1 sequence
In the case of B1, the “stoichiometry N” value in “SEC-MALS” stood at 2.

B2: FrzCD^ΔH2 (receptor, Myxococcus xanthus, UniProt P43500 1-417, looked up)
chain: T3 sequence
Turning to B2, in the data set “SEC-MALS”, the “stoichiometry N” value is 4.

B3: 178 bp DNA (dsDNA)
DNA 1: GGATCGCATCTGCCTACATCCCCAGCTCCCGGTCGGTCCGCTCGGAACCTAGCCCGGGTCAAAGACCCGGGGTCTATGTTGACCCATTTGGTGGGGATGGGTCTAATTGGACCTGGCGTTTTTTCGCGCCATGGAAATGTCAAGGCCCGTGATTCCAGACTGTTGGGCAGGGAGTT
DNA 2: AACTCCCTGCCCAACAGTCTGGAATCACGGGCCTTGACATTTCCATGGCGCGAAAAAACGCCAGGTCCAATTAGACCCATCCCCACCAAATGGGTCAACATAGACCCCGGGTCTTTGACCCGGGCTAGGTTCCGAGCGGACCGACCGGGAGCTGGGGATGTAGGCAGATGCGATCC
As to B3, the Kd with FrzCDΔH1ΔH2 [2] was found to be 203 nM; with FrzCD [3] it was 1070 nM; in the data set with FrzCDΔH2 (DB-H1-MA) [4], 2640 nM; with FrzCDΔH1 [5] it was 2270 nM.

B4: FrzCD^ΔH1ΔH2 (receptor, Myxococcus xanthus, UniProt P43500 1-417, looked up)
chain: T2 sequence
On to B4, for which, in the data set “SEC-MALS”, the “stoichiometry N” value is 4.

B5: 12 bp DNA (dsDNA)
DNA 1: CTCACTATAGGG
DNA 2: CCCTATAGTGAG
On to B5, for which, in the data set with FrzCDΔMA (DB-H1-H2) [6], the binding result is reported as “binds”.

B6: FrzCD^ΔMA (domain or fragment, Myxococcus xanthus, UniProt P43500 1-137, looked up)
chain: T5 sequence
In the case of B6, the “stoichiometry N” value in the data set “SEC-MALS” worked out at 2.

B7: 8 bp DNA (dsDNA)
DNA 1: ACTGCAGT
DNA 2: ACTGCAGT
With B7, the binding result with FrzCD [1] and with FrzCDΔMA (DB-H1-H2) [7] was “binds” each time.

B8: 35 bp DNA (dsDNA)
DNA 1: GTCACCTGCTCTAGCTAATAGACTGAGCCGAGGTG
DNA 2: CACCTCGGCTCAGTCTATTAGCTAGAGCAGGTGAC
Turning to B8, the binding result with FrzCDΔMA (DB-H1-H2) [8], with FrzCDΔH2 (DB-H1-MA) [9], with FrzCDΔH1 [10], with FrzCDΔH1ΔH2 [11] and with FrzCD [12] was “binds” throughout.

B9: FrzCD^ΔH1 (receptor, Myxococcus xanthus, UniProt P43500 1-417, looked up)
chain: T4 sequence
On to B9, for which, in the data set “SEC-MALS”, the “stoichiometry N” value was 4.
